B1: TPR t1 (parent)
chain: GACCAAUCUGCCCUCAGAGCUCGAGAACAUCUUCGGAUGCAGAGGAGGCAGGCUUCGGUGGCGCGAUAGCGCCAACGUCCUCAACCUCCAAUGCAUCCCACCACAUGAUGAUGCCUGAAGAGCCUUGGUUUUUUG

Variants of: B1
Test: polymerase ribozyme fitness, log enrichment relative to wild type (log ratio); higher = more active; in vitro selection for triplet polymerase activity
Outline: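 Fitness is a logarithmic measure of how a genotype enriched relative to the wild type, with replicate averages weighted by inverse variance. The logarithm uses base 2, and enrichment came from Illumina sequencing of input and output libraries. Those libraries were PCR-built, transcribed mutants of each subunit of a heterodimeric triplet polymerase ribozyme, passed through one triplicate in vitro selection round that included frozen incubation at −7 °C, gel excision of extended constructs and streptavidin-bead capture. Genotypes were kept only if they had ≥10 input reads and ≥1 read per output.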

Variant | polymerase ribozyme fitness (log ratio)
GACCAAUCUGCCCUCAGAGCUCGAGAACAUCUUCGGAUGCAGAGGAGGCAGGCUUCGGUGGCGCGAUAGCGCCAACGUACUCAAUCUCCAAUGCAUCCCACCACAUGAUGAUGCCUGAAGAGCCUUGGUUUUUUG | -2.34
GACCAAUCUUCCCUCAGAGCUCGAGAACAUCUUCGGAUGCAGAGGAGCCAGGCUUCGGUGGCGCGAUAGCGCCAACGUCCUCAACCUCCAAUGCAUCCCACCACAUGAUGAUGCCUGAAGAGCCUUGGUUUUUUG | -0.778
GACCAAUCUGCCCUCAGAGCUCGAGAACGUCUUCGGAUGCAGAGGAGGCAGGCUUCGGUGGCGCGAUAGCGCCAACGUCCUCAACCUCCAAUGCAUCCCACCACAUGAUGAUGCCUGAAUAGCCUUGGUUUUUUG | -0.745
GACCAAUCUGCCCUCAGAGCUCGAGAACAUCUUCGGAUGCAGAGGAGGCAGGCUUCGGUGGCGCGAUAGCGCCAACGUCCUCAACCUCCAAUGCGUCCCACCCCAUGAUGAUGCCUGAAUAGCCUUGGUUUUUUU | -6.78
GACCAAUCUGCCCUCAGAGCUCGAGAACAUCUUCGGAUGCAGAGGAUGCAGGCUUCGGUGGCGCGAUAGCGCCAACGUCCUCAACCUCCAAUGCAUCUCACCACAUGAUGAAGCCUGAAGAGCCUUGGUUUUUUG | -3.7
GACCAAUCUGCCCUCAGAGCUCGAGAACAUCUUCGGAUGCAGAGGAGGCAGGCUUUGGUGGCGCGAUAGCGCCAACGUCCUCAACCUCCAAUGCAUCCCACCACAUGAUGAUGCAUGAAGAGCCUUGGUUUUCUG | 1.27
GACCAAUCUGCCCUCAGAGCUCGAGAACAUCUUAGGAUGCAGAGGAGGCAGGCUUCGGUAGCGCGAUAGCGCCAACGUCCUCAACCUCCAAUGCAUCCCACCACAUGAUGAUGCCUGAAGAGCCUUGGUUUUUUG | -3.35
GACCAAUCUGCCCUCAGAGCUCGAGAACAUCUUCGGAUGCAGAGGAGGCAGGCUUCGGUGGCGCGAUAGCGCCAACGUCCUCAACCUCCGAUGCAUCCCACCAUAUGAUGACGCCUGAAGUGCCUUGGUCUUUUG | 2.04
GACCAAUCUGCCCUCAGAGCUCGAGAACAUCUUCGGAUGCAGAGGAGGCAGGCUUCGGUGGCGCGAUAGCGCCAACGUCCUCAACCUCCAAUACAUCCCACCACAUGAUGAUGACUGCAGAGCCUUGGUUUUUUG | -3.7
GACCAAUCUGCCCUCAGAGCUCGAGACCAUCUUCGGAUGCAGAGGAGGCAGGCUUCGGUGGCGCGAUAUCGCAAACGUCCUCAACCUCCAAUGCAUCCCACCACAUGAUGAUGCCUGAAGAGCCUUGGUUUUUUG | -1.89
GACCAAUCUGCCCUCAGAGCUCGAGAACAUCUUCGGAUGCAGAGGAGGCAGGCUUCGGUGGCGCGAUAGCGCCAACGUCCUCAACCGCCAAUGCAUCCCACAACAUGAUGAUGCCUGAAGAGCGUUGGUUUUUUG | 0.127
GACCAAUCUGCCCUCAGAGCUCGAGAACAUCUUCGUACGCAGAGGAGGCAGGCUUCGGUGGCGCGAUAGCGACAACGUCCUCAACCUCCAAUGCAUCCCACCACAUGAUGAUGCGUGUAGAGCGUUGGUUCUUUG | -5.85
GACCAAUCUGCCCUCAGAGCUCGAGAACAUCUUCGGAUGCAGAGGAGGCAGGCUUCGGAGGCGCGAUAGCGCCAACGUCCUCAACCUCCAAUGCAUCCCACCACAUGAUGAUGACUGAAGAGCCUUGGUAUUUUG | -2.17
GACCAUUCUGCCCUCAGAGCUCGAGAACAUCUUCGGAUGCAGAGGAGGCAGGCUUCGGUGGCGCGAUAGCGCCAACGUCAUCAACCACCAAUGCAUCCCACCACAUGAUGAUGCCUGAAGAGCCUUGGUUUUUUG | -2.6
GACCAAUCUGCCCUCAGAGCUCGAGAACAUCUUCGGAUGCAGAGGAGGCAGGCAUCUGUGGCGCGAUAGCGCCAACGACCUCAACCUCCAAUGCUUCCCACCACAUGAUGAUGCCUGAAUAGCCUUGGUUUUUUG | -0.728
GACCAAUCUGCCCUCAGAGCUCGAGAACAUCUUCGGAUUCAGAGGAGGCAGGCUUCGGUGGCGCGAUAGCGGCAACGUCCUGAACCUCCAAUGCAUCCCACCACAUGAUGAUGCCUGAAGAGCCUUGGUUUUUUG | -2.35
GACCAAUCUGCCCUCAGAGCUCGAGAACAUCUUCGGAUGCAUAGGAGGCAGGCUUCGGUGGCGCGAUAGCGCCAACGUCCUCAACCUCCAAUGCAUCCCACCACAUGAUGAUGCCUGAAGAGCCUUGGUUUUUUG | -1.31
GACCAAUCUGACCUCAGAGCUCGAGAACAUCUUCGGAUGCAGAGGAGGCAGGCUUCUGUGGCGCGAUAGCGCCAACGUCCUCAACCUCCAAUGCAUCCCACCACAUGAUGAUGCCUGAAGAGCCUUGGUUUUUUG | -1.56
GACCAAUCUGCCCUCAGAGCUCGAGAACAUCUUCGGAUGCAGAGGAGGCAGGCUUCGGUGGGGCGAUAGCGCCAACGUCCUCAACCUCUAAUGCAUCCCACCACAUGAUGCUGCCUGAAGAGCCUCGGCUUUUUG | -4.44
GACCAAUCUGCCCUCUGAGCUCGAGAACAUCUUCGGAUGUAGAGGAGGCAGGCUUCGGUGGCGCGAUAGCGCCAACGUCCUCAACCGCCAAAGCAUCCCACCACAUGAUGAUGCCUGAAGAGCCUUGGUUUUUUG | -5.02
GACCAAUCUGCCUUCAGAGCUCGAGAAGAUCUUCGGAUGCAGAGGAGGCAGGCUUCGGUGGCUCGAUAGCGCCAACGUCCUCAACCUCCAAUGCAUCUCACCACAUGAUGAUGCUUGAAGAGCCUUGGUUUUUUG | -5.89

Variant | polymerase ribozyme fitness (log ratio)
GACCAAUCUGGCCUCAGAGCUCGAGAACAUCUUCGGAUGCAGAGGAGGCAGGCUUCGGUGGCGCGAUAGCGCGAACGUCCUCAACCUCCAAUGCAUCCCAUCACAUGAUGACGCCUCAAGAGCCUUGGUUUUUUG | -3.04
GACCAAUCUGCCCUCAGAGCUCGAGAACAUCUUCGGAUGCAGAGGAGGCAGGCUUCGGUGACGCGAUAGCGCCAACGUCCUCAACCUCCAAUGCAUCCCACCACAUGAUGUUGCCCGAAGAGCCUUGGUUUUUUG | -4.5
GACCAAUCUGCCCUCAGAGCUCGAGAACAUCUUCGAAUGCAGAGGAGGCAGGCUUCGGUGGCGCGAUAGCGCCAACGUCCUCAAGCUCCAAUGCAUCCCACCACAUGAUGAUGCCUGAAGAGCCUUGGUUCUUUG | -2.08
GACCAAUCUGCCCUCAGAGCUCGAGAACAUCUUCGGAUGCAGAGGAGGCCGGCUUCGGUGGCGCGAUAGCGCCAACGUCCUCAACCUCCAAUGCAUCCCACCACAUGAUGAUGCCUGAAGGGCCUUGGUUUUUUG | 1.73
GACCAAUCUGCCCUCAGAGCUCGAGAACAUCUUCGGAUGCAGUGGAGGCAGGCUUCGGUUGCGCGAUAGCGCCAACGUCCUAAACCUCCAAUGCAUCCCACCACAUGAUGAUACCUGAAGAGCCUUGCUUUUUUG | -4.46
GACCAAUCAGCCCUCAGAGCUCGAGAACAUCUUCGAAUGCAGAGGAGGCAGGCUUCGGUGGCGCGAUAGCGCCAACGUCCUCAACCUCCAAUGCAUCCCACCACAUGAUGAUACCUGAAGAGCCUUGGUUUUUUG | -0.728
GACCAAUCUGCCCUCAGAGCUCGAGCACAUCUUCGGAUCCAGAGGAGGCAGGCUUCGGUGGCGCGAUAGCGCCAACGUCCUCAACCUCCAAUGCAUCCCACCAUAAGAUGAUGCCUGAAAAGCCUUGGUUUUUUG | -5.96
GACCAAUCUGCCCUCAGAGCUCGAGAACAUCUUCGGAUGCAGAGGAGGCAGGCUUCGGUGGCGCGAUAGCGCCAACGUCCUCCACCUCCAAUGCAUCCCACCACAUGAUGAUGACUGAAGAGGGUUGGUUUUUUG | -0.19
GACCAAUCUGCCCUCAGAGCUCGAGAACAUCUUCGGAUGCAGAGGAGGCAGGCUUCGGUGGCGCGAUAGCGACAACGUCCUCAACCUGCAAUGCAUCCCACCACAUGAUGAUGCCUGAAGAGCAUUGGUUUUUUG | 1.33
GACCAAUCGGCCCUCAGAGCUCGAGAACAUCUUCGGAUGCAGAGGAGGCAGGCUUCGGUGGCGCGAUAGCGUCAACGUCCUCAACCUCCAAUGAAUCCCACCACAUGAUAAUUCCUGAAGGGCCUUGGUUUUUUG | -6.14
GACCAAUCUGCCCUCAGAGCACGAGAACAUCUUCGGAUGCAGAGGAGGCAGGCUUCGGUGGCGCGAUAGCGCCAACGUCCUCAACCUCCAAUGCAUCCCACCACAUGAUGAUGCCUGAUGAGCCUUGGUUUUUUG | -0.295
GACCACUCUGCCCUCAGAGCUCGAGAACAUCUUCGGAUGCAGGGGAGGCAGGCUUCGGUGGCGCGAUAGCGCCAACGGCCUCAACCUCCAGUGCAUCCCACCACAUGAUGAUGCCUGAAGAGCCUUGGUUUUUUG | -2.53
GACCAAUCUGCCCUCAGAGCUCGAGAACAUCUUCGGAUGCAGAGGAGGCAGGCUUCGGUGGCGCGAUAGCGCCAACGUCCUCAACCUCCAAUGCAUCCCACCAAAUGAUGAUGCCUGAAAAGCCUUGGUUUUUUG | -0.701
GACCAAUCUGCCUUCAGAGCUCGAGAACAUCUUCGGAUGCAGAGGAGGCAGGCUUCGGUGGCGCGAUAGCGCCAACGUCCUCAACCUCCAAUGCAUCCCACAACAUGAUGAUGCCUGAAGAGCCUUGGUUUUUUG | -2.14
GAUCAAUCUGCCCUCAGAGCUCGAGAACAUCUUCGGAUGCAGAGGAAGCAGGCUUCGGUAGCGCGAUAGCGCCAACGUCCUCAAGCUCCAAUGCAUCCCACCACAUGAUGAUGCCUGAAGAGUCUUGGUUUUUUG | -2.64
GACCAAGCUGCCCUCAGAGCUCGAGAACUUCUUCGGAUGCAGAGGAGGCAGGCUUAGGUGGCGCGAUAGCGCCAAUGUCCUCAACCUCCAAUGCAUCCCACCACAUGAUGAUGCCUGAAGAGCCUUGGUUUUUUG | -1.78
GACCAAUAUGCCCUCAGAGCUCGUGAACAUCUUCGGAUGCAGAGGAGGCAGGCUUCGGUGUCGCGAUAGCGCCAACGUCCUCAACCUCCAAUGCAUCCCACCACAUGAUGAUGCUUAAAGAGCCUUGGUUUUUUG | -7.42
GACCAAUCUGCCCUCAGAGAUCGAGAACAUCUUCGGAUGCAGCGGAGGCAGGCUUCGGUGGCGCGAUAGCGCCAACGUCCUCAACCUCCAAUGUAUCCCACCACAUGAUGAUGCCUGAAGAGCCUUGGUUUUUUG | -4.19
GACCAAUCUGCCCUCAGAGCUCGAGAACAUCUUCGGAUGCAGAUGAGGCAGGCUUCGGUUGCGCGAUAGCGCCAACGUCCUCAACCUCCAAUGUAUCCCACCACAUGAUGAUGCCUGAAGAGCCUUGGUUUUUUG | -0.792
GACCAUUCUGCGCUCAGAGCUCGAGAACAUCUUCGGAUGCAGAGCAGGCAGGCUUCGGUGGCGCGAUAGCGCCUACGUCCUCAACCUCCAAUGUAUCCCACCACAUGAUGAUGCCUGAAGAGCCUUGGUUUUUUG | -0.942
GACCAAUCUGGCCUCAGAGCUAGAGCACAUCUUCGGAUGCAGAGGAGGCAGGCUUCGGUGGCGCGAUAGCGCCAACGUCCUCAACCUCCAAUGCAUCCCACAACAUGAUGAUGCCUGAAGAGCCUUGGUUUUUUG | -5.19

Source: the RNAGym collection of RNA variant scans (doi:10.1073/pnas.2313332121)
